Test results: paper PMC3074145 (Nucleic Acids Research, 2010)
Like-named read-outs stand apart in the source and are kept apart here.

Legend:
GST–Dpb11 = molecular target: T1, GST–Dpb11 (S. cerevisiae, UniProt P47027 1-764); assay: pull-down
T1 sequence (looked up): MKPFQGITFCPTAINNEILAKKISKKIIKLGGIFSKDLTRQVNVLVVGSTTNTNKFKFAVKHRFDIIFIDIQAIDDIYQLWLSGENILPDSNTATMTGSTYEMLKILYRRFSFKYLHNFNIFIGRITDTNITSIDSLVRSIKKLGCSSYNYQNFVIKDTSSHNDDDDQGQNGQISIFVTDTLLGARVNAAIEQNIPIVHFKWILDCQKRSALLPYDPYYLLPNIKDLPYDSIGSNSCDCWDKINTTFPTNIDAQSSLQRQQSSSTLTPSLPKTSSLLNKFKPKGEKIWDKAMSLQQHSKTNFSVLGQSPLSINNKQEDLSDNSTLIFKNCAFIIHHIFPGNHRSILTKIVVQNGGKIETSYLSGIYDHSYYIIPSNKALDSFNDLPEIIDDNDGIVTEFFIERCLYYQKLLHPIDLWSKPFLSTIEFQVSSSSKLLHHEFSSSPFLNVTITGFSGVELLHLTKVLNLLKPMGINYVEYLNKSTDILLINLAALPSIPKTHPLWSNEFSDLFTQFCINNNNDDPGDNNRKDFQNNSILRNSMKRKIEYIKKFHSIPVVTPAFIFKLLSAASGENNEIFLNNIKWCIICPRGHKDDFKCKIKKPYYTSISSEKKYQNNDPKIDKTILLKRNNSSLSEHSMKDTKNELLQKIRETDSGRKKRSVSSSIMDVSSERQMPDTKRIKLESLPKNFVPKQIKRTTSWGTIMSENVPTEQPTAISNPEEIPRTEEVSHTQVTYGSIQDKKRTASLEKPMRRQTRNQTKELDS

Sld2 = molecular target: T2, Sld2 (Saccharomyces cerevisiae, UniProt P34252 1-453); assay: fluorescence anisotropy
T2 sequence: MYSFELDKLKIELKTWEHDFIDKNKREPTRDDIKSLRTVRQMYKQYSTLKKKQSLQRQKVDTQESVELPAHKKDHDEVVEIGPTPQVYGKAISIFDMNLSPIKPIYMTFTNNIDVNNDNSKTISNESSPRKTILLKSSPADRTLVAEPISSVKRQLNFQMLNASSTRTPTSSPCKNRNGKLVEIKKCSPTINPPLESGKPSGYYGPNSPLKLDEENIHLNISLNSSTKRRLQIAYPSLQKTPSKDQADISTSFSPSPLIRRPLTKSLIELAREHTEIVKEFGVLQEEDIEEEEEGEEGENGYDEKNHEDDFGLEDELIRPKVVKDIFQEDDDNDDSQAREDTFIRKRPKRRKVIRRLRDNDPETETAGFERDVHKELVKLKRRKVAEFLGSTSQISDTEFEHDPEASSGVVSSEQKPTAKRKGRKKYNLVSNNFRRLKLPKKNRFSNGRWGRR

Sld2T84D = molecular target: T3, Sld2T84D (Saccharomyces cerevisiae, UniProt P34252 1-453, T84D); assay: fluorescence anisotropy
T3 sequence: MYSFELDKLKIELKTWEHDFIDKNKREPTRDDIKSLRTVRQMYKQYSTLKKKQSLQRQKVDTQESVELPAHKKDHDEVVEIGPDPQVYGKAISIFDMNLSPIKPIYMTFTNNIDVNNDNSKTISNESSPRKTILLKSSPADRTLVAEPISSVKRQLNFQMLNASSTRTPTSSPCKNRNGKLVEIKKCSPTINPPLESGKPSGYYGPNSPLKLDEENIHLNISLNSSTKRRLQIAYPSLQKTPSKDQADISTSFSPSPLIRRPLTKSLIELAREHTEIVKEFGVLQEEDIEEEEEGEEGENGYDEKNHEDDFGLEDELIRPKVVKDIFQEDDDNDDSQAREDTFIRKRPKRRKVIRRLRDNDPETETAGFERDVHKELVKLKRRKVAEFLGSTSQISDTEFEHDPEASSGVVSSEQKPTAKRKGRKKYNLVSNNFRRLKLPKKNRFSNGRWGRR

GST-Sld2T84D [1] = molecular target: T4, GST-Sld2T84D (Saccharomyces cerevisiae, UniProt P34252 1-453, T84D); assay: GST pull-down
T4 sequence: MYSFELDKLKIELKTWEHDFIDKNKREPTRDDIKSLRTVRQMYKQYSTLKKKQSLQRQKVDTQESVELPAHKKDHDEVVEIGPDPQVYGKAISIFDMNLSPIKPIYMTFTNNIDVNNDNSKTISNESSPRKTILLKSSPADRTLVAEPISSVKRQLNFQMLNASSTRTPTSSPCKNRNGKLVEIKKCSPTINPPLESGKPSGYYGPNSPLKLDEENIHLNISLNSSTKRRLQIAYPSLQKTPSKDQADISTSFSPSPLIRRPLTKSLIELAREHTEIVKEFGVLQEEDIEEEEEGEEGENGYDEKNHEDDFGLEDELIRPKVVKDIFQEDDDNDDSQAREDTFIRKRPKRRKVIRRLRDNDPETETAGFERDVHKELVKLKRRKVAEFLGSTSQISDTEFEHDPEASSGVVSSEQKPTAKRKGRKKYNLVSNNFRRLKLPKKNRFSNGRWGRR

GST-Sld2T84D [2] = molecular target: T4, GST-Sld2T84D; assay: GST pull-down; remark: listed apart in the source
Dpb11;Sld2T84D = molecular target: T5, Dpb11;Sld2T84D (Saccharomyces cerevisiae;Saccharomyces …, UniProt P47027;P34252 1-764;1-453, |T84D); assay: biotin-DNA pull-down
T5 sequence 1: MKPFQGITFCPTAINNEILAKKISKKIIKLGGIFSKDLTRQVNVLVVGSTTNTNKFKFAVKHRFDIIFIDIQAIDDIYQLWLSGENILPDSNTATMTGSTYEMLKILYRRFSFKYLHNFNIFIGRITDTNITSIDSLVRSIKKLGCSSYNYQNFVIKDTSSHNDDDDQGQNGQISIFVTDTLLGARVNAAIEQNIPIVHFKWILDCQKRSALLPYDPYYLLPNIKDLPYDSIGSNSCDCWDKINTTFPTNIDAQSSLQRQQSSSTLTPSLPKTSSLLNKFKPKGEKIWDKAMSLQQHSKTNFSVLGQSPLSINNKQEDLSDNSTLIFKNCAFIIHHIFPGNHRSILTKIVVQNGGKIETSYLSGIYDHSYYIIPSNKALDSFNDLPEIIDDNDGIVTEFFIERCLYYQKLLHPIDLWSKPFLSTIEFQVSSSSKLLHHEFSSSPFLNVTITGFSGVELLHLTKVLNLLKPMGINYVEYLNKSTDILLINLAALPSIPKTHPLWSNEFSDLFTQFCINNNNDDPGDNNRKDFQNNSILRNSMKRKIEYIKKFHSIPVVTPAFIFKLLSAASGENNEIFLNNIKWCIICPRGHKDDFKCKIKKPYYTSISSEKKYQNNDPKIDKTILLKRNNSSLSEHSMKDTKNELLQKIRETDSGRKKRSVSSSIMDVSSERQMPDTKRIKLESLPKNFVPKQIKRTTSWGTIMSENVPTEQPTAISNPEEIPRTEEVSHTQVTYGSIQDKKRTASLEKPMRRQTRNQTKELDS
T5 sequence 2: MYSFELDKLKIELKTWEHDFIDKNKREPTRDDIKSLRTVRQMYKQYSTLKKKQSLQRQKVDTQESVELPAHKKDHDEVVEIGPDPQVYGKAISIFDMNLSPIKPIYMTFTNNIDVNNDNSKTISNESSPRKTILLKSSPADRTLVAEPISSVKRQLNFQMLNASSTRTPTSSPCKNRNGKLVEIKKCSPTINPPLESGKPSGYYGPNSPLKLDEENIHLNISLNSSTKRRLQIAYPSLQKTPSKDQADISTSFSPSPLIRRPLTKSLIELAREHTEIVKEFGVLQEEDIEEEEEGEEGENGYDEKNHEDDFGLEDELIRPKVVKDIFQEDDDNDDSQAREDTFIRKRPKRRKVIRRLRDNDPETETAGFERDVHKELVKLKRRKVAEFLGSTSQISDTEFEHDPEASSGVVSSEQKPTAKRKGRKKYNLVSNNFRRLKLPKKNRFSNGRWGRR

B1: Sld2T84D (radiolabeled, with a PKA sequence at the N-terminus) (natural protein, S. cerevisiae, UniProt P34252 1-453, looked up)
chain: MYSFELDKLKIELKTWEHDFIDKNKREPTRDDIKSLRTVRQMYKQYSTLKKKQSLQRQKVDTQESVELPAHKKDHDEVVEIGPDPQVYGKAISIFDMNLSPIKPIYMTFTNNIDVNNDNSKTISNESSPRKTILLKSSPADRTLVAEPISSVKRQLNFQMLNASSTRTPTSSPCKNRNGKLVEIKKCSPTINPPLESGKPSGYYGPNSPLKLDEENIHLNISLNSSTKRRLQIAYPSLQKTPSKDQADISTSFSPSPLIRRPLTKSLIELAREHTEIVKEFGVLQEEDIEEEEEGEEGENGYDEKNHEDDFGLEDELIRPKVVKDIFQEDDDNDDSQAREDTFIRKRPKRRKVIRRLRDNDPETETAGFERDVHKELVKLKRRKVAEFLGSTSQISDTEFEHDPEASSGVVSSEQKPTAKRKGRKKYNLVSNNFRRLKLPKKNRFSNGRWGRR
modifications: 32P-phosphate on the N-terminal PKA sequence (radiolabeled with PKA and γ-32P-ATP)
percent of input pulled down (with ssARS1-1 at a ratio of 1.2 ssARS1-1/Sld2T84D) (GST–Dpb11): 35.2%

B2: FAM-ssARS1-1 (ssDNA)
DNA: TTACATCTTGTTATTTTACAGATTTTATGTTTAGATCTTTTATGCTTGCTTTTCAAAAGGCCTGCAGGCAAGTGCACAAA
Kd (Sld2): 694 ± 50 nM
Kd (Sld2T84D): 179 ± 43 nM

B3: ARS1-T-A (ssDNA)
DNA: AAACAACAAGAAAAAAAACAGAAAAAAAGAAAAGAACAAAAAAGCAAGCAAAACAAAAGGCCAGCAGGCAAGAGCACAAA
binding result (GST-Sld2T84D [1]): no binding

B4: ARS1-G-C (ssDNA)
DNA: TTACATCTTGTTATTTTACACATTTTATCTTTACATCTTTTATCCTTCCTTTTCAAAACCCCTCCACCCAACTCCACAAA
binding result (GST-Sld2T84D [2]): binds

B5: ARS1-A-C (ssDNA)
DNA: TTCCCTCTTGTTCTTTTCCCGCTTTTCTGTTTCGCTCTTTTCTGCTTGCTTTTCCCCCGGCCTGCCGGCCCGTGCCCCCC
binding result (GST-Sld2T84D [2]): binds

B6: Biotin-ssARS1-1 (ssDNA)
DNA: TTACATCTTGTTATTTTACAGATTTTATGTTTAGATCTTTTATGCTTGCTTTTCAAAAGGCCTGCAGGCAAGTGCACAAA
binding result (Dpb11;Sld2T84D): binds
